According to patent publication US20240052051A1 (Regeneron, published 2024):

Molecular target: T1, human transferrin receptor extracellular domain with hexahistidine-myc-myc tag (REGN2431) (human, UniProt P02786 89-760)
T1 construct: also called hTFR-mmh; hmm.hTfRC
Assay: blocking ELISA: supernatant pre-mixed with 300 pM Hmm-hTFRC, hTFRC bound to immobilized human holo-Tf read
Experimental: In the blocking assay, the anti-human Transferrin goat IgG polyclonal antibody (anti-hTf pAb) was passively absorbed at a concentration of 2 micrograms/mL in PBS on a 96-well microtiter plate overnight at 4° C. […] To the same plate, human holo-Tf was then added at a concentration of 1 micrograms/mL in PBS+0.5% BSA for 2 hours at room temperature. […] After a 1-hour incubation, the mixtures were transferred to the human holo-Tf microtiter plates. […] The plates were developed using TMB substrate solution according to the manufacturer's recommended procedure and absorbance at 450 nm was measured on a Victor™ Multilabel Plate Reader.
The ability of the anti-TfR antibody to block human TFRC binding to human holo-Tf was evaluated using an ELISA-based blocking assay.

T1 sequence (P02786 other isoform, or with tags, fused parts or gaps): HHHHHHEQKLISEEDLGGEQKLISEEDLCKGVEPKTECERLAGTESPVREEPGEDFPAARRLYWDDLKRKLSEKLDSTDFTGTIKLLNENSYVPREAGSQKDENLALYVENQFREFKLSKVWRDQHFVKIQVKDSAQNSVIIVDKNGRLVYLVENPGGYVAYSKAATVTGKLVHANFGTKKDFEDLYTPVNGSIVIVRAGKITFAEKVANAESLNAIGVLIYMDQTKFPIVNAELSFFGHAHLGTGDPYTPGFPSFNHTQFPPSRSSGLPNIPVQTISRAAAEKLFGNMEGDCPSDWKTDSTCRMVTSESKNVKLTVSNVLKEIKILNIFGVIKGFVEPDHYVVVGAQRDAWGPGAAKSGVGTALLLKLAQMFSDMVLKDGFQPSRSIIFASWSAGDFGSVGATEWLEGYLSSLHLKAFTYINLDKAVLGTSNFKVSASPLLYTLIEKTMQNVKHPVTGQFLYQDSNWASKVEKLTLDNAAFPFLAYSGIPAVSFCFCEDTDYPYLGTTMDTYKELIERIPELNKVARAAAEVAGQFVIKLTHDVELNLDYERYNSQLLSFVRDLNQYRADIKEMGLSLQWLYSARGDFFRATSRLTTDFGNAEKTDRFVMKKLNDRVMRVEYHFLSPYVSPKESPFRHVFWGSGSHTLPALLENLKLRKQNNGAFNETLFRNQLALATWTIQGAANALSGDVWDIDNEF

B1: 69348 anti-hTfR scFv (VH-VK) (scFv)
scFv: QVQLVESGGGVVQPGRSLRLSCAASGFTFTTYGMHWVRQAPGKGLEWVAVIWYDGSNKYYGDSVKGRFTISRDNSKNTLYLQMNSLRVDDTAVYYCTRTHGYTRSSDGFDYWGQGTLVTVSSGGGGSGGGGSGGGGSDIQMTQSPSSLSASVGDRVTITCRASQSIRNVLGWFQQKPGKAPQRLIYAASSLQSGVPSRFSGSGSGTEFTLTISSLQPEDFATYYCLQHNFYPLTFGGGTKVEIK
notes: also called 69348 scFv (VH - VK) Format
% Blocking: 0%
